In publication PMC6599478:

Legend:
[1] = molecular target: HIV-1 clade B Tier 1A chronic virus MN.3 gp120 Env (HIV-1 (clade B, MN.3)) (UniProt P05877)
[2] = molecular target: HIV-1 MN.3 Env with the glycan mutation N332A, on pseudovirus (HIV-1 (clade B, MN.3)) (UniProt P05877)

Substance | IC50 of neutralisation of wild type HIV-1 MN.3 virus, TZM-bl reporter cells [1] | IC50 of neutralisation of HIV-1 MN.3 N332A pseudovirus, TZM-bl reporter cells [2]
recombinant full length Tenascin-C, large isoform (TNC-L) (from UniProt P24821 23-2201) (natural protein) | 31 µg/mL | –
recombinant full length Tenascin-C, large isoform (TNC-L), P24821 23-2201 | – | 113 µg/mL
